This passage reports Km results from paper PMC11908824, “UGT74B5-mediated glucosylation at ortho hydroxyl groups of benzoic acid derivatives regulating plant immunity to anthracnose in tea plants” (Horticulture Research, 2025).

By Km is commonly meant the concentration of substrate that gives half-maximal velocity.

Substrate in series [1]: O=C(O)c1ccccc1O
Kind of series: LC-MS glucosyltransferase assay. It is filed as biochemical, Camellia sinensis. As to conditions: 2.5 mM UDP-glucose, optimal conditions (pH 8.0-8.5, 30°C), 0-300 μM substrate.

Substrate in series [2]: O=C(O)c1c(O)cccc1O
Put plainly: LC-MS glucosyltransferase assay. Type of series: biochemical, Camellia sinensis. The settings on record: 2.5 mM UDP-glucose, optimal conditions (pH 8.0-8.5, 30°C), 0-300 μM substrate.

B1: CsUGT74B5 (rCsUGT74B5) (Camellia sinensis) (protein)
chain: MEQRNHGGHVVVLPYPSQGHINPLLQFAKRLASKGVKATLATTHYTVKSICVPNIAVEPISDGFDNGGFTQARAEDVYLKSLRENGSRTLSQLIEKHKNTNFPINCVVYDSFFPWALDVAKTHGIYGAPFFTNSATVCAIFCHVHHGLVKLPVKVEELPLVLPGIPPLNLVDLPSFVQAPESYPAYLAMKLSQYSNLDKADWVFGNTFEELEGEAVKNVLELWPGKMIGPMVPSAYLDGRIEEDKGYGASLWKPLSSDCAKWLEAKPSQSVVYVSFGSMVSLTEEQMEEMAWGLKGSNLDFIWVVRESEITKLPSEFTNSTAQEKGLIVTWCNQLEMLAHQAIGCFVTHCGWNSTLEGLSLGVPMVGVPKWTDQLTDAKFIEEIWGVGFRAKEDEKGVVRREELMGCLKEVMEGERSVEIRKNCCKWKELAKEAISEGGSSDKSIDEFVEQLKSGNEKGVVKYLTNGNGHY
notes: full CDS in pMAL-c2X (N-terminal MBP fusion, tag cleavage not mentioned), expressed in E. coli Novablue (DE3), amylose resin purified
As to B1, the Km in series [1] was 42.01 µM; in series [2], 15.26 µM.
